Measurements reported in US20110077196A1.

Target: human insulin receptor isoform B (human) (UniProt P06213)
Assay: competitive displacement of 125I-Tyr^A14-insulin, plate antibody capture of receptor

Chain of UniProt P06213 (P06213 other isoform, or with tags, fused parts or gaps): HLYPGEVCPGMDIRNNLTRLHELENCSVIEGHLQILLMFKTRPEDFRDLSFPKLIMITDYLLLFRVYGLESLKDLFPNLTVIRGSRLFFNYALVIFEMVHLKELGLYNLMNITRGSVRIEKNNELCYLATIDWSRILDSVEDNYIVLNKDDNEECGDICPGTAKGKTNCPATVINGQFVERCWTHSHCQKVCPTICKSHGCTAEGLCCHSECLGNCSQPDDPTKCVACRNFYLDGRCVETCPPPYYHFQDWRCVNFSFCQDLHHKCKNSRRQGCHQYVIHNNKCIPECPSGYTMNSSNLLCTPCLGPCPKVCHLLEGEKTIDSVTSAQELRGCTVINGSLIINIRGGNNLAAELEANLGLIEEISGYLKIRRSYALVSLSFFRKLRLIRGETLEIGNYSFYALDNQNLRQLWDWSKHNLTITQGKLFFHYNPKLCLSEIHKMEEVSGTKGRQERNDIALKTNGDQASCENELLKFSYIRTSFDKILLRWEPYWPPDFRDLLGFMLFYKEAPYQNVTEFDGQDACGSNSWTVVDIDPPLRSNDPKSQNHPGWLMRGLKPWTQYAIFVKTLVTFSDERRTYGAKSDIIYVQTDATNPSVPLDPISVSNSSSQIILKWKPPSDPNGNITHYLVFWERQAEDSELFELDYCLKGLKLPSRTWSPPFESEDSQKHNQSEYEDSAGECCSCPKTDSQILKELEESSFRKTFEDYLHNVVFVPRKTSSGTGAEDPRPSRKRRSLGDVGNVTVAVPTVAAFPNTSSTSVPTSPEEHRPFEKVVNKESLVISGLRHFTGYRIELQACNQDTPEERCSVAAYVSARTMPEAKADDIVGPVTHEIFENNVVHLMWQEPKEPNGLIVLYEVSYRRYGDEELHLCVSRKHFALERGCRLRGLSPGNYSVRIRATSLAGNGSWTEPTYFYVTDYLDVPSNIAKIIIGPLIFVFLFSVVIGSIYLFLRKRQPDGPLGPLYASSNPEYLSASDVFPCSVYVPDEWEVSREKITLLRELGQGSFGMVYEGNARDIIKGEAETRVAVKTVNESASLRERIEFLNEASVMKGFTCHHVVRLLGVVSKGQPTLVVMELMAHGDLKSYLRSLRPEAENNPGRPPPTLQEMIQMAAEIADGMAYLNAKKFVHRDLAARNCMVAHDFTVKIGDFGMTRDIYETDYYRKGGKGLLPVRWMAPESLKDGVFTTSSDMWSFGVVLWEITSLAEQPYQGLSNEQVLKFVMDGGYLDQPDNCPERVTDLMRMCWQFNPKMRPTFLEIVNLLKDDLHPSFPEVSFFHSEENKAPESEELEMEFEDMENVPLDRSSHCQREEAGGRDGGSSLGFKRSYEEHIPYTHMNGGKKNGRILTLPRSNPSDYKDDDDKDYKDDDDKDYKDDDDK

## XKPEE: analogue with 2-methyl-Phe^B24 (called X), Lys^B28, Pro^B29, and EE-extension (Glu^B31, Glu^B32) (ligand)
  Kd: 0.04 nM
